This note sets out measurements from US20260167734A1 (PROVIDENCE HEALTH AND SERVICES OREGON, published 2026).

For experiment [1], the target named is T1, human FasL, cell surface (membrane-bound) (human, UniProt P48023 1-281).
T1 sequence: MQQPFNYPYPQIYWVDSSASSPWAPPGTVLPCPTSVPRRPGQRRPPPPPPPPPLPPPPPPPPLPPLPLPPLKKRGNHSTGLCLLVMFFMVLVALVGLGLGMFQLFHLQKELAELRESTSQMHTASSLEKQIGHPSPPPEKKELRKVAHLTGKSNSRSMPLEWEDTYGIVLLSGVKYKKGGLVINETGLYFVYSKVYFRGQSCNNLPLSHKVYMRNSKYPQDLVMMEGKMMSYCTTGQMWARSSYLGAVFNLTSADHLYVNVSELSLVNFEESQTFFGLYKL
The experiment is described as follows: cell-based or functional assay.

Experiment [2] concerns the target T2, soluble human Fas ligand (FasL) (human, UniProt P48023 103-281, limits assumed).
T2 construct: also called sFasL; recombinant soluble FasL
T2 sequence: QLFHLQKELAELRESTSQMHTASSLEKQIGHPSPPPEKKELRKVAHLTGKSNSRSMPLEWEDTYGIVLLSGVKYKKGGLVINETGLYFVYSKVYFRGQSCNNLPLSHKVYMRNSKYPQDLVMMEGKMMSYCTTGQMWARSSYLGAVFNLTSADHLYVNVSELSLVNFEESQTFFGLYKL
The experiment is described as follows: ELISA on soluble FasL.

For experiment [3], the target named is T2, soluble human Fas ligand (FasL). The experiment is described as follows: multi-dose SPR, BIACORE 8K; multi-dose SPR using BIACORE 8K. As to the method:
(§1) Binding of M3T01 to human FasL was measured by multi-dose SPR using BIACORE™ 8K. […] In another study, binding of M3T01 to soluble FasL (sFasL) was measured by ELISA.

Experiment [4] shares this target. The experiment is described as follows: SPR, BIACORE 8K, multi-dose; M3T01 in column 'Ligand', Recombinant Human Fas Ligand in column 'Analyte'. The procedure:
as §1

The target in the next experiment is T3, mouse FasL, cell surface (mouse, UniProt P41047 1-279).
T3 construct: Expressed on transfected HEK293T cells
T3 sequence: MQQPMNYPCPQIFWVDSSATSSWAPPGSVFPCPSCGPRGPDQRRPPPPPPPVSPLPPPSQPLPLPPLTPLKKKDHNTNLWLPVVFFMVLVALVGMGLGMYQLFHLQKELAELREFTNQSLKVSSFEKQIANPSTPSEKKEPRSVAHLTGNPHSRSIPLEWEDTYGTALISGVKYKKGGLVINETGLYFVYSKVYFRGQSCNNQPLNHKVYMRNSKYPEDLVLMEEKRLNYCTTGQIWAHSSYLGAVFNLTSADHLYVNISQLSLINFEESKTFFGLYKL
The experiment is described as follows: flow cytometry, HEK293T cells transfected with mouse FasL. As to the method: (§2) FIG. 2B: Binding of M3T01 to cell surface FasL across multiple species (human, cynomolgus macaque, rat, and mouse). M3T01 staining of HEK293T cells transfected with vectors expressing FasL from various species was measured by flow cytometry.
(§3) Next, assays were performed to evaluate binding of M3T01 to cell-surface, membrane-bound FasL from a variety of different species. HEK293T cells were transfected with vectors expressing either mouse, human, rat or cynomolgus macaque FasL and binding by M3T01 was measured by flow cytometry.

The target of a further experiment is T4, rat FasL, cell surface (rat, UniProt P36940 1-278).
T4 construct: Expressed on transfected HEK293T cells
T4 sequence: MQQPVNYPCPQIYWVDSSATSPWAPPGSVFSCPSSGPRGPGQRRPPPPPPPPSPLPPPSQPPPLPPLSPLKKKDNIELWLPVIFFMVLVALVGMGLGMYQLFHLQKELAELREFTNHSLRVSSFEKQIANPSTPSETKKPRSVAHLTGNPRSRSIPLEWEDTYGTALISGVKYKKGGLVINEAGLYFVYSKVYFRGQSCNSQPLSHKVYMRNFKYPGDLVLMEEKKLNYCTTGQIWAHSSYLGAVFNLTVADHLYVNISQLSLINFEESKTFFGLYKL
The experiment is described as follows: flow cytometry, HEK293T cells transfected with rat FasL. The procedure:
as §2, §3

The target of experiment [5] is T5, cynomolgus macaque FasL, cell surface (cynomolgus macaque, UniProt P63308 1-280).
T5 construct: Expressed on transfected HEK293T cells
T5 sequence: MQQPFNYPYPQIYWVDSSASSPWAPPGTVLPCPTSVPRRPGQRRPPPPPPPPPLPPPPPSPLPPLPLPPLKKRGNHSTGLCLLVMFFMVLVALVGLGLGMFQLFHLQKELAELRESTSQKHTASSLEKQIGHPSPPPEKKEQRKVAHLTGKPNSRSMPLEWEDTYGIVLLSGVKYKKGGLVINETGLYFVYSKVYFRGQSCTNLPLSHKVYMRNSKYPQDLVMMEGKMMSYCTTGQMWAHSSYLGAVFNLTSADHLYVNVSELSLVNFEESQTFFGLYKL
The experiment is described as follows: flow cytometry, HEK293T cells transfected with cynomolgus macaque FasL. As to the method: as §2, §3

For experiment [6], the target named is T2, soluble human Fas ligand (FasL). The experiment is described as follows: single-dose SPR. An excerpt:
Several variants of the M3T01 antibody were isolated and tested for binding affinity to human FasL using a single-dose SPR affinity measurement. Each variant clone includes the same CDR sequences as M3T01 but includes one or more amino acid substitutions in the framework region (FR) of the VH domain and/or VL domain. The variant sequences, substitutions relative to the M3T01 VH and VL domains, and measured binding affinity are listed in Table 2. The binding affinities reported in Table 2 are from a single-dose SPR study.

B1: M3T01 (antibody, V domains shown)
VH: QVQLVESGGGVVQPGRSLRLSCAASGFTFSTYGIHWVRQAPGKGLEWVAVIWYDGSDKFYADSVKGRFTISRDNSKNTLYLQMNSLRAEDTAVYYCARDRDNWNYFDYWGQGTLVTVSS
VL: DIQMTQSPSTLSASVGDRVTITCRASQSISSWLAWYQQKPGKAPKFLIYQASSLESGVPSRFSGSGSGTEFTLTISSLQPDDFATYYCQQYNSYITFGQGTRLEIKR
notes: Fully human IgG4/kappa with S228P; also called M27.2
As to B1, the “inhibition of FasL-mediated apoptosis of Jurkat cells (annexin-V externalization, flow cytometry), IC50” value in experiment [1] worked out at 0.33 nM. Besides, the “inhibition of FasL-mediated apoptosis of Jurkat cells, potency relative to sCD95-Fc” value in experiment [1] was found to be 310 fold. The “EC50 (read off the curve)” value in experiment [2] is about 0.02 nM. In addition, the Kd came out at 0.974 nM in experiment [3] and 3.2 nM in experiment [6]. The koff in experiment [4] is 0.000235 s⁻¹. In addition, in experiment [4], the on-rate (kon) was found to be 242000 M⁻¹ s⁻¹. The binding result is given as “binds” with mouse FasL, cell surface; “binds” with rat FasL, cell surface; “binds” in experiment [5].

B2: M27.3 (antibody, V domains shown)
VH: QVQLVESGGGVVQPGRSLRLSCAASGFTFSTYGIHWVRQAPGKGLEWVAVIWYDGSDKFYADSVKGRFTISRDNSKDTLYLEMNSLRAEDTAMYYCARDRDNWNYFDYWGQGTLVTVSS
VL: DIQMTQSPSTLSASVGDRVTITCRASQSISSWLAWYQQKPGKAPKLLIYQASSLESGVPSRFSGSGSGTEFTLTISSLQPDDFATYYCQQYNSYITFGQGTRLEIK
notes: Variant clone of M3T01 with the same CDRs
The molecule B2 showed a Kd in experiment [6] of 1.96 nM. In other words, the single-digit nanomolar range.

B3: M27.6 (antibody, V domains shown)
VH: QVQLVESGGGVVQPGRSLRLSCAASGFTFSTYGIHWVRQAPGKGLEWVAVIWYDGSDKFYADSVKGRFTISRDNSKDTLYLEMNSLRAEDTAVYYCARDRDNWNYFDYWGQGTLVTVSS
VL: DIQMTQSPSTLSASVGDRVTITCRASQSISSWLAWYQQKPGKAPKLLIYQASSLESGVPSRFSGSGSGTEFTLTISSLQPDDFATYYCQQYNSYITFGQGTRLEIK
notes: as for B2
On to B3, for which the Kd in experiment [6] was determined as 2.12 nM.

B4: M27.5 (antibody, V domains shown)
VH: QVQLVESGGGVVQPGRSLRLSCAASGFTFSTYGIHWVRQAPGKGLEWVAVIWYDGSDKFYADSVKGRFTISRDNSKDTLYLQMNSLRAEDTAMYYCARDRDNWNYFDYWGQGTLVTVSS
VL: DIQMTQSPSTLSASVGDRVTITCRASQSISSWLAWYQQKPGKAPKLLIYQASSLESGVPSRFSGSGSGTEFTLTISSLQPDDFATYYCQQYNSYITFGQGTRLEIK
notes: as for B2
Turning to B4, in experiment [6], the Kd turned out to be 3.44 nM.

B5: M27.1 (antibody, V domains shown)
VH: QVQLVESGGGVVQPGRSLRLSCAASGFTFSTYGIHWVRQAPGKGLEWVAVIWYDGSDKFYADSVKGRFTISRDNSKDTLYLEMNSLRAEDTAMYYCARDRDNWNYFDYWGQGTLVTVSS
VL: DIQMTQSPSTLSASVGDRVTITCRASQSISSWLAWYQQKPGKAPKFLIYQASSLESGVPSRFSGSGSGTEFTLTISSLQPDDFATYYCQQYNSYITFGQGTRLEIK
notes: as for B2
Regarding B5, in experiment [6], the Kd was 1.36 nM. Compared with the last molecule, the Kd is about 2.5-fold lower.

B6: M27.4 (antibody, V domains shown)
VH: QVQLVESGGGVVQPGRSLRLSCAASGFTFSTYGIHWVRQAPGKGLEWVAVIWYDGSDKFYADSVKGRFTISRDNSKNTLYLQMNSLRAEDTAVYYCARDRDNWNYFDYWGQGTLVTVSS
VL: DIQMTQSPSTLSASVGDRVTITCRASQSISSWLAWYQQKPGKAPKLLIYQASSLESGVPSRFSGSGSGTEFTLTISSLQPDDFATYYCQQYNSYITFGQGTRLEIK
notes: as for B2
In experiment [6], B6 displayed an equilibrium dissociation constant (Kd) of 3.1 nM.
